Experimental data published in the supplement of paper PMC12455559.
± gives the standard deviation of the averaged measurements.

Key:
[1] = PET hydrolysis, aromatic products released after 48 h (umol product/mg enzyme); higher = more PET depolymerization activity
Outline: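 Tagless, SUMO-cleaved candidate enzymes were purified on nickel beads, and 5 μg (50 μL) was added to 3.5 mg amorphous PET film or crystalline PET powder in 450 μL buffer. Buffers were 50 mM NaCitrate (pH 4.5, 5.5), 50 mM NaPhosphate (pH 6.5, 7.5) or glycine (pH 8.5). Sealed plates were incubated 48 h at 40 or 60 °C without shaking. PET hydrolysis activity is the aromatic product in the supernatant, read by absorbance at 260 and 280 nm against buffer blanks and expressed per mg enzyme.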

[2] = purified protein yield per well (BCA); higher = higher soluble expression
Outline: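 On an OT-2 robot, lysed cells were processed by binding protein to Ni-charged magnetic beads and releasing it with SUMO protease. Expression took place in E. coli C41(DE3), in 2 mL autoinduction cultures with 100 µg/mL kanamycin, for 2 h at 37 °C followed by 40 h at 18 °C. The Pierce Rapid Gold BCA kit was used to quantify purified protein yield in each well, with values under 25 ug (0.1 mg/mL) below the detection threshold.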

[3] = melting temperature (DSF); higher = more thermostable
Outline: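 After expression in E. coli C41(DE3), the candidate enzymes were bound to nickel beads and released with SUMO protease. Their melting temperature was found by differential scanning fluorimetry with Sypro Orange on a Bio-Rad CFX96. Each sealed PCR plate well held 45 μL enzyme (0 to 0.3 mg/mL) plus 5 μL 5X dye, and fluorescence was read for 250 cycles from 25 °C at 0.3 °C per cycle (ramp 0.3 °C/s).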

[4] = substrate: cryPow, 40 °C, pH 4.5
[5] = substrate: cryPow, 40 °C, pH 5.5
[6] = substrate: cryPow, 40 °C, pH 6.5
[7] = substrate: cryPow, 40 °C, pH 7.5
[8] = substrate: cryPow, 60 °C, pH 4.5
[9] = substrate: cryPow, 60 °C, pH 5.5
[10] = substrate: cryPow, 60 °C, pH 6.5
[11] = substrate: cryPow, 60 °C, pH 7.5
[12] = substrate: aFilm, 40 °C, pH 4.5
[13] = substrate: aFilm, 40 °C, pH 5.5
[14] = substrate: aFilm, 40 °C, pH 6.5
[15] = substrate: aFilm, 40 °C, pH 7.5
[16] = substrate: aFilm, 60 °C, pH 4.5
[17] = substrate: aFilm, 60 °C, pH 5.5
[18] = substrate: aFilm, 60 °C, pH 6.5
[19] = substrate: aFilm, 60 °C, pH 7.5

Sequence | PET hydrolysis [1, 4] | PET hydrolysis [1, 5] | PET hydrolysis [1, 6] | PET hydrolysis [1, 7] | PET hydrolysis [1, 8] | PET hydrolysis [1, 9] | PET hydrolysis [1, 10] | PET hydrolysis [1, 11] | purified protein yield per well [2] [µg] | melting temperature [3] [C] | PET hydrolysis [1, 12] | PET hydrolysis [1, 13] | PET hydrolysis [1, 14] | PET hydrolysis [1, 15] | PET hydrolysis [1, 16] | PET hydrolysis [1, 17] | PET hydrolysis [1, 18] | PET hydrolysis [1, 19] | PET hydrolysis ([1]; substrate: cryPow, 40 °C, pH 8.5) | PET hydrolysis ([1]; substrate: cryPow, 60 °C, pH 8.5)
ADNPHQRGPNPTQASVAASRGTFATSETSVGGGNGFGGAKIYYPTDTSQGKFAALAVSPGYTATWAAEGAWMGHWLASFGFVIIGIDTISRTDWDVARGDQLLAALDYLTQRSSVRDRVDASRVGVMGHSMGGGGAISAGLKRPSLKVVIGNAPYSASQNLTNMRVPVALLAGQRDTTVTPATTNSYYNQVPATTEKMYLELTNAPHSFPTSNNSVMTRKVIPWMKIFLDQDTRYQQFLCPLLDNTGIRTYRSSCPLIGDPMPPADTYRLAGAASGKCADVEGRSQANGAKLLLWTCNGQTNQRWTQTATGELRVYDNPKCVEAGTSAQGTRVTINACNGGNSQKWTVNANGTVTNAVSGRCLDAAGTADNSPIVVNTCTGAGSQNWSKRS [TEP049] | < 3 | < 3 | < 3 | < 3 | < 3 | < 3 | < 3 | < 3 | 68.7 | 50.8 | – | – | – | – | – | – | – | – | – | –
ADNPYERGPAPTAASIAADRGPFATAQVTVPRGNGFGGGVIYYPTDTSQGTFGAIAIAPGFGTAWSYYAWQGPRLASFGFVVIGIETNTLNDYADARATQLLAALDYLVNSSPVRDRVDRNRLAVGGHSMGGGGAILAANQRPSLLTAVGQAPYVPDGSLATIKSPTIIFAGQADGTVTPQYAQNAYNTIPSSVERAYVEIANEGHGFPAGGGGGNSGAFARTMMIWMKLFIDKDTRYAPFLCPSLSNANGISKYMASCPLDPPGGGPTASPTASPTVSPTVSPSGTPPATSAIRGVGSGRCLDVNGASQANGAQAQIWDCNGQNNQKWTTTSAGELRVYGNKCLDVNGGGTADGTSVIIWDCNGQNNQKWRLNTDGTITAVGANKCLDVSGAGTANGTKVQIWTCNGQNNQKWTRT [ESM038] | 4 | 10 | 16 | 19 | < 3 | < 3 | 4 | 6 | 190 | 68.8 | – | – | – | – | – | – | – | – | – | –
ADNPYERGPAPTEASVEAPRGPYAVSETTVSPLAVTGFGGGTVYYPTSTADGTFGAIAVSPGYTGTQSSIAWLGPRLASQGFVVFTIDTLTTLDQPDSRGRQLLAALDYLTQKSSVRGRIDSTRLGVMGHSMGGGGSLEAAKSRPSLQAAIPLTPWNLDKTWPEVATPTLIFGADGDTIAPVATHAEPFYTSLPASLDRAYLELNGATHFTPNTSNTTIAKYSIAWLKRFIDDDTRYEQFLCPLPRPGLTIEEYRGNCPHTS [TEP117] | < 3 | < 3 | < 3 | < 3 | < 3 | < 3 | < 3 | < 3 | 202 | 40 | < 3 | < 3 | < 3 | < 3 | < 3 | < 3 | < 3 | < 3 | – | –
ADNPYERGPAPTTSSIEASRGPFATASTTVSSLVSGFGGGTIYYPTSTAEGTFGAVAISPGYTGTQSSIAWLGPRIASQGFVVITIDTNTIYDQPDSRASQLLAALDYLTQSSSVRTRIDATRLGVMGHSMGGGGTLRAAESRPALQAAIPLTAWHTDKTWGNVRVPTLVIGAENDSIAPVATHSEPFYTSLPSTLDKAYLELNAADHFAPNSSNTTIAKYSISWLKRFIDNDTRYEQFLCPPPSRSLLIEEYRDTCPHS [TEP108] | < 3 | < 3 | < 3 | < 3 | – | – | – | – | 53.3 | 42.1 | – | – | – | – | – | – | – | – | – | –
ADNPYERGPDPTERSIEAARGPFGVSTERVGSLGVSDFGGATIYHPTDRSQTYGAIAISPGFTAGWTSLSWLGERLASQGFVVIGIDTITRLDQPGSRGRQLLAALDYATTRSNARALIDAQRLAVAGHSMGGGGTLEAAAERPSLKAAIPLAPWNLDKSWAEVRTPTLIIGGESDNIAAVNTHSIPFYNSLSNAREKAYMEIDNGTHFFPNTANTLMAKYMISWMKRYIDDDTRYEQFLCPPPDDRGISEYRHTCPGS [DP088] | – | < 3 | < 3 | < 3 | – | < 3 | < 3 | < 3 | 70 | 43.9 | – | – | – | – | – | – | – | – | < 3 | < 3
ADNPYERGPDPTESSIEASRGPFAVSQTTVSSLAVTGFGGGTIYYPTDTSQGTFGAVAISPGYTADQSSIAWIGPRLASQGFVVFTIDTITRYDQPASRGDQLLAALDYLTQRSSVRGRIDSSRLGVAGHSMGGGGTLEAAEERPSLQAAVPLAPWNLQKNFSGVRVPTFIIGGESDTVAPVATHSEPFYTSLPSTLDKAYMELNNASHFFPNTPNTTMAKYMISWFKRFIDDDTRYDQFLCPNPSGLAIEEYRSTCPY [TEP089] | < 3 | < 3 | < 3 | < 3 | < 3 | < 3 | < 3 | < 3 | 105 | 44.2 | – | – | – | – | – | – | – | – | – | –
ADNPYERGPDPTPASVAAPNGPFATAQVSVPPGYGFNGGMIYYPTDTSQGTFGAIAISPGYTALFSVELAWMGPRLASQGFVVIGIETNDRNDFDTARGTQLLAALDYLTGQSSVRSRVDPNRLAVAGHSMGGGGAFSAALRRPALKAAVGFTPFSPSQNLTNMQVPALLYSGQNDTVTTPSSVSNLYNGLPSTTEGAYLEAAGLDHSFPTRPNTLLMRTMIPWVKIFLDNDLRYTQFLCPLMDSSGVLQYRNTCPLVPPGLPSPSPTTAPPTTAPPTTAPPTTAPPTTAPPTTAPPTTAPPAGACTATYQTIGSWPGGFQGEVTVRAGNSAINGWTVGWSLGSGQSITQIWNGTLSTSGSSVSVRNVSYNGSLPAAGTVTFGFLGSGSPSTPSTVTCTSP [ESM012] | < 3 | 9.5 ± 3.5 | 21.5 ± 3.5 | 21.5 ± 0.71 | < 3 | < 3 | < 3 | < 3 | 519 | 60.7 | < 3 | < 3 | < 3 | < 3 | < 3 | < 3 | < 3 | < 3 | – | –
ADNPYERGPDPTRTSVATERGPFANTSVSVPSGHGFNGGRIYYPTDTSQGTFGAIAISPGYTALFSVELAWMGPWLASHGFVVIGIETNSTNDFDTARGTQLLAALDYLTQQSPVRDRIDPSRLAVSGHSMGGGGALSAAMRRSSLKAVVGITPFSPSSNLASNQVPTMVISGQADTVVTPSYALDLYNSLPASTESVYLEVAGGDHGFMVGRSNPVLIRTMLPFLKMFVDNDTRYSQFLCPLMDNSGVVTYRSTCPLLPTPPTTPPPTGDPTSPPPSTDPTTPPPSGSTGQIVGTQSNRCIDVPNSSRNNGTRVQLYDCHGQANQTWTYNSTTKQLRVYGDMCLDAAGSGNGAAVQIYNCHGQTNQQWNLNSNGTISGVQSNRCLDVWSTNNGAQIQLYDCHGQTNQQFRIRS [ESM173] | 3.5 ± 0.71 | 11.5 ± 0.71 | 20.5 ± 0.71 | 11 | < 3 | < 3 | < 3 | < 3 | 199 | 61.6 | < 3 | < 3 | < 3 | < 3 | < 3 | < 3 | < 3 | < 3 | – | –
ADNPYERGPDPTRTSVATERGPFANTSVSVPTGYGFNGGRIYYPTDTSQGTFGAIAISPGYTALFSAELAWMGPWLASHGFVVIGIETNSRNDFDTARGTQLLAALDYLTQQSPVRDRVDASRLAVAGHSMGGGGALSAATRRPALKAAVGITPFSPSSNLANDRVPTMVISGQADTVVTPSYALDLYNSLPSTTESVYVEVAGGDHGFMVGRSNPVMIRTMLPFLKIFVDNDARYSQFLCPLMDNSGVVTYRSTCPLINTPTTPPPTSPPPTSPPPTSPPPTTPPPGSATQIVGVQSNRCIDVPNSSRNNGTRVQLYDCHGQTNQAWTYTANKQLQVYGNMCLDAAGTGNGAAVQIYSCHGGANQQWNVNSNGTISGVQSGRCLDVWSTSNGAQVQLYDCHGGTNQRFNLVAR [TEP082] | 6.5 ± 0.71 | 15 ± 1.4 | 39.5 ± 2.1 | 34 ± 1.4 | < 3 | 2 ± 2.8 | 6 ± 1.4 | 3.5 ± 0.71 | 282 | 63.1 | < 3 | < 3 | < 3 | < 3 | < 3 | < 3 | < 3 | < 3 | – | –
ADNPYERGPNPTESLIEAARGPFATSQTTVSSLSVTGFGGGVIYYPTDTSQGTFGGIAISPGYTAAWSSLDWLGPRLASHGFVVIGIETNTRLDQPASRGDQLLAALDYLTQRSSVRSRVDATRLAVAGHSMGGGGSLEAAKDRTSLKAAIPLAPWNTDKTWPEVRTPTLIIGGESDTVAPVSSHSIPFYTSLTSAREKAYLELDNASHFFPQTSNTTMAKYMISWMKRYIDNDTRYEQFLCPGPSTGLLSGISDWRQTCPGS [TEP073] | < 3 | < 3 | < 3 | < 3 | < 3 | < 3 | < 3 | < 3 | 81.6 | 46.9 | – | – | – | – | – | – | – | – | – | –
ADNPYERGPNPTQASIAASRGTFATAEVSVGGGNGFAAAKIYYPTDTSQGTFGAIAIVPGYTATWAAEGAWMGPWLASFGFVVIGIDTLSRNDFDTARGTQLLAALDYLTQRSSVRSRVDASRLAVMGHSMGGGGAISAALRRPSLKAAVGLAPFSPSQGTSGMRVPSMLLAGQRDGTVTPSSVRNLYNAIPATTEKAYLELTGAGHGFPTSANSVMMRKVIPWLKIFVDQDTRYQQFLCPLVDWTGITSYQSSCPLIPGGSTGTTYNLVNSSGKCADVNAASQVNGAALLLWTCHTNPNQRWTETSAKELRVYDNPKCMDAGAAQQGTRVTINSCSGGGSQKWTVNANGTVTNDLSGRCLGAAGGATTDNTPLVVASCDGSPGQQWTKQS [TEP093] | 4 | 12 | 31 | 28 | < 3 | 4 | 7 | 7 | 166 | 69.7 | – | – | – | – | – | – | – | – | – | –
